Columns and labels:
IM-9 cells = test: Cytotoxicity assay (WST-8 cell viability); type: cell-based, human; conditions: IM-9, 24 hours after cross-linking with the secondary antibody
Description: In other experiments, cells were cultured with 2D7-DB in the absence of the goat anti-mouse IgG antibody. Cell viabilities were determined by WST-8 assays or Trypan Blue exclusion assays. […] (B) The morphological observations of myeloma cells after 2D7-DB treatment are shown. Purified MM cells derived from patient No. 18 were cultured for 24 hours in the presence (1 μg/mL) or absence of 2D7-DB. Next, cells were fixed on glass slides and stained with light Giemsa (original magnification,×1000). (C) A graph indicating the cytotoxic activity of 2D7-DB on the patients' MM cells is shown. CD138-positive MM cells were purified from six patients, and the cells were cultured for 24 hours with 2D7-DB (0.1 or 1μg/mL). Cell viabilities were determined by Trypan Blue exclusion assays.
Cytotoxicity assays were performed as follows. […] Cell viabilities were measured by WST-8 assays (Kishida Chemical, Osaka, Japan) for the cell lines, and by Trypan Blue dye exclusion assays for patient-derived primary MM cells. Apoptosis induction was assessed by flow cytometric analysis with Annexin V and PI staining (MEBCYTO apoptosis kit MBL, Nagoya, Japan).
Next, cytotoxic effects of single chain Fv-type 2D7 mAb (2D7-DB) on MM cell lines and patient-derived MM cells were assessed. […]

[1] = system: HLA class I on K562 cells; test: Cell surface expression analysis of HLA class I by flow cytometry; type: binding, human; conditions: K562, chronic myeloid leukemia cells; FITC-labeled mAb
Description: (§1) Reactivity of 2D7 mAb in tumor cell lines and myeloma cells derived from multiple myeloma patients were assessed by flow cytometry.
(§2) The tumor cell lines used were prepared as follows. The myeloma cell line RPMI 8226, B lymphoblastic cell lines (IM-9, Raji, H S-Sultan, and Daudi), the T lymphoblastic cell line CEM, the chronic myeloid leukemia cell line K562, the lung adenocarcinoma cell line A549, the colon adenocarcinoma cell line COLO 201, and the gastric adenocarcinoma cell line MKN-1 were obtained from the Health Science Resources Bank (Osaka, Japan). The myeloma cell line U266-B1, the B lymphoblastic cell line ARH-77, the T-lymphoblastic cell line Jurkat the breast cancer cell line MCF-7, the hepatocellular carcinoma HepG2, the clear cell renal cell carcinoma Caki-2, and the malignant melanoma MeWo were obtained from the American Type Culture Collection (Manassas, Va.). The EBV-transformed B-cell line YN was a gift from Dr. Yasuhiko Nishioka (The University of Tokushima). These cell lines were cultured in an RPM-1640 medium (Sigma-Aldrich, St. Louis, Mo.) supplemented with 10% fetal calf serum (Gibco BRL, Grand Island, N.Y.) and penicillin (100 U/mL) under a humidified atmosphere of 5% CO2 at 37° C.
(§3) Cell surface expression analysis of HLA class I by flow cytometry was performed as follows using FITC-labeled 2D7 mAb or FITC-labeled anti-HLA-ABC common region mAb (Chemicon, San Diego, Calif.). The cells (5×10^5 cells) were washed twice with PBS, and then incubated on ice for 40 minutes with FITC-labeled 2D7 mAb or FITC-labeled anti-HLA-ABC common region mAb. MM patient-derived BMMCs were incubated on ice for 15 minutes with 2% γ globulin diluted in PBS, and stained with FITC-labeled 2D7 mAb and PE-labeled anti-CD38 mAb (BD Bioscience, San Jose, Calif.) for myeloma cell gating. Next, the cells were washed twice with PBS, and analyzed using an EPICS XL flow cytometer (Beckman Coulter, Japan). In several experiments, the cells were stimulated for 48 hours with IFNα or IFNγ prior to HLA class I expression analysis. HLA class I expression levels were evaluated as GeoMFI using the CellQuest software (BID Biosciences).

[2] = system: HLA class I on Caki-2 cells; test: as above; type: binding, human; conditions: Caki-2, clear cell renal cell carcinoma; FITC-labeled mAb
Description: as §1, §2, §3

[3] = system: HLA class I on IM-9 cells; test: as above; type: binding, human; conditions: IM-9, B-lymphoblastic cells; FITC-labeled mAb
Description: as §1, §2, §3

[4] = system: HLA class I on RPMI 8226 cells; test: as above; type: binding, human; conditions: RPMI 8226, myeloma cells; FITC-labeled mAb
Description: as §1, §2, §3

[5] = system: HLA class I on MeWo cells; test: as above; type: binding, human; conditions: malignant melanoma, FITC-labeled mAb
Description: as §1, §2, §3

[6] = system: HLA class I on MCF-7 cells; test: as above; type: binding, human; conditions: MCF-7, breast cancer cells; FITC-labeled mAb
Description: as §1, §2, §3

[7] = system: HLA class I on U266 cells; test: as above; type: binding, human; conditions: U266, myeloma cells; FITC-labeled mAb
Description: as §1, §2, §3

HLA-A on myeloma cells = test: HLA-A expression in BMMCs of MM patients (flow cytometry, FITC-labeled 2D7 mAb); type: binding, human; conditions: BM samples of 22 MM patients, mean±SD
Description: (§4) After cell gating (R1: CD38-positive MM cells; R2: myeloid cells; and R3: lymphocytes), each cell population was evaluated for HLA-A expression. (B) BMMCs derived from 22 MM patients were analyzed for HLA-A expression.
(§5) Patients' MM cells were prepared as follows. First clinical disease stage classification and diagnosis of MM patients were performed according to the Durie and Salmon classification (Durie, B. CT, and S. E. Salmon. 1975. “A clinical staging system for multiple myeloma. Correlation of measured myeloma cell mass with presenting clinical features, response to treatment, and survival,” Cancer, 36:842-854). Bone marrow samples were collected from patients after obtaining informed consent upon approval by the ethics committee of The University of Tokushima. The bone marrow mononuclear cells (BMMCs) were separated by Ficoll-Hypaque (density of 1.077) centrifugation. Patient-derived MM cells were further purified from BMMCs using CD138 microbeads (Miltenyi Biotec, Auburn, Calif.).
as §3, with “In several experiments, the cells were stimulated for 48 hours with IFNα or IFNγ prior to HLA class I expression analysis.” left out
(§6) Next, HLA-A expression in BMMCs of MM patients was examined. […] After gating the cells according to their side-scattered light profile and CD38 expression, each of the cell populations comprising myeloma cells, myeloid cells, and lymphocytes was analyzed for HLA-A expression. […]

HLA-A on lymphocytes = test: as above; type: binding, human; conditions: BM samples of 22 MM patients, mean±SD
Description: as §4, §5
as §3, with “In several experiments, the cells were stimulated for 48 hours with IFNα or IFNγ prior to HLA class I expression analysis.” left out
as §6

HLA-A on myeloid cells = test: as above; type: binding, human; conditions: BM samples of 22 MM patients, mean±SD
Description: as §4, §5
as §3, with “In several experiments, the cells were stimulated for 48 hours with IFNα or IFNγ prior to HLA class I expression analysis.” left out
as §6

B1: 2D7: monoclonal antibody obtained by immunizing human myeloma cells; recognizes HLA class I (HLA-A) (antibody, V domains shown)
VH: QVQLQQSGPELVKPGASVKMSCKASGYTFTDYFIHWVKQRPGQGLEWIGWIFPGDDTTDYNEKFRGKTTLTADKSSSTAYILLSSLTSEDSAMYFCVRSDDFDYWGQGTTLTVSS
VL: QIVLTQSPAIMSASPGEKVTITCSASSSVSYMHWFQQKPGTFPKLWIYSTSNLASGVPTRFSGSGSGTSYSLTISRMEAEDAATYYCQQRTSYPPTFGSGTKLEIK
With B1 the “inhibition of cell viability” value (IM-9 cells) was “more efficiently than W6/32, B9.12.1, and JOAN-1”, the “Expression (geometric mean fluorescence intensity)” value [1] was 11 and the “Expression (geometric mean fluorescence intensity)” value [2] was 13. The “Expression (geometric mean fluorescence intensity)” value [3] was 662, the “Expression (geometric mean fluorescence intensity)” value [4] was 509 and the “Expression (geometric mean fluorescence intensity)” value [5] was 21. The “Expression (geometric mean fluorescence intensity)” value [6] was 29, the “Expression (geometric mean fluorescence intensity)” value [7] was 340 and the “HLA expression level, geometric mean fluorescence intensity (GeoMFI)” value (“HLA expression level” below) (HLA-A on myeloma cells) was 1309±1130. The “HLA expression level” value (HLA-A on lymphocytes) was 91±44 and the “HLA expression level” value (HLA-A on myeloid cells) was 201±209.
